Like-named read-outs stand apart in the source and are kept apart here.
B1: Synechocystis sp. PCC 6803 GCS T-protein (aminomethyltransferase), recombinant (enzyme)
chain: MANLFPALRTPLYNLITEQTTKLTTFGGWEMPVQFAGLKQEHQAVREKVGMFDISHMGKFVLTGQKVLAALQSLVPSDLDRLTPGKAQYTVLLNAQGGIIDDIIVYDQGKNPEGQERVTLIVNAATTVKDKQWLLEHLPEEIDFQDLSREKVLIALQGPEALTILQPLVDQNLGELPAFGHLEAEFLREKAFIARTGYTGEDGFEIMVSPEVGKQLWQTFGSKGVTPCGLGARDTLRLEAGMGLYGQDMNDETTPLEAGLGWLVHLDSKGDFIGRAVLTEQKANGVEKRLVGLEMLAKQIARHDYPILHNGEIMGIVTSGTLSPTLQKAIALGYVPTELAKVGQELEVEVRGKTYGIKVVKKLFYRSEQKPR
B2: Synechocystis sp. PCC 6803 GCS P-protein (glycine decarboxylase), recombinant (enzyme)
chain: MPNLEPAVVVPTSEAIAVDLTKLEEKLAPADSFLDRHLGPGETEQRQMLQTLGFDTLGDLIDQAVPPAIRFPRSLQLPASQSEYGAIAQLKSIASKNQVFRSYIGMGYYDTITPPVIQRNILENPGWYTAYTPYQAEIAQGRLEALLNFQTMVMDLTGLEIANASLLDEGTAAAEAMALSYGVSKSKANAFFVAQDCHPQTIEVIKTRANPLGIEVIVGDHHTFSFSTSIFGALLQYPATDGAVYDYRSFIDKAHQHQALVTLAADPLSLTLLTPPGELGADIAVGSTQRFGIPLGYGGPHAAYFATKAEYQRKMPGRIVGVSKDAHGNPALRLALQTREQHIRRDKATSNICTAQVLLAVMASMYGVYHGSTGLKNIALRIHQLTVLLAIGLKRLNYSLNNDYFFDTLRVGVGEQSAPAILKAAEGRGINLRPLVPGEVGISLDETVTVQDLLDLWQVFAGKDNLPFTPEELWSEVKTSFPADLTRQSLYLQDAVFNQYHSETELLRYLHQLESKDLALNTSMIPLGSCTMKLNATAEMMPVTWPEFGKIHPFAPAGQTEGYQILFAQLEAWLGEITGFDAISLQPNAGSQGEYAGLQVIRQYHLSRGEEQRNICLIPESAHGTNPASAVMCGMQVVPVKCDGEGNIDVEDLTSKAEKYGDRLAALMVTYPSTHGVFEATIGTICDIVHRFGGEVYMDGANMNAQVGLCRPADFGADVCHLNLHKTFCIPHGGGGPGMGPIGVKSHLQAFLPRTSLNSTAELQAEDQSIGMISAAPYGSASILVISWMYIAMMGPQGLTKATEVAILSANYMAKRLENYYPILFRGNNELVAHECILDLRPLKKQAAIEVEDVAKRLMDFGFHAPTVSWPVLGTMMVEPTESESLGELDRFCDAMIAIYQEAQAITHGEIDPADNPLKNAPHTAQSLICGEWNHPYSQEEAAYPAPWTKQFKFWPAVGRINNTYGDRHLVCSCEGMEAYKEG
B3: Synechocystis sp. PCC 6803 GCS L-protein (dihydrolipoamide dehydrogenase), recombinant (enzyme)
chain: MSQDFDYDLVIIGAGVGGHGAALHAVKCGLKTAIIEAKDMGGTCVNRGCIPSKALLAASGRVREMSDQDHLQQLGIQINGVTFTREAIAAHANDLVSKIQSDLTNSLTRLKVDTIRGWGKVSGPQEVTVIGDNETRILKAKEIMLCPGSVPFVPPGIEIDHKTVFTSDEAVKLETLPQWIAIIGSGYIGLEFSDVYTALGCEVTMIEALPDLMPGFDPEIAKIAERVLIKSRDIETYTGVFATKIKAGSPVEIELTDAKTKEVIDTLEVDACLVATGRIPATKNLGLETVGVETDRRGFIEVNDQMQVIKDGKPVPHLWAVGDATGKMMLAHAASGQGVVAVENICGRKTEVDYRAIPAAAFTHPEISYVGLTEAQAKELGEKEGFVVSTAKTYFKGNSKALAEKETDGIAKVVYRQDTGELLGAHIIGIHASDLIQEAAQAIADRKSVRELAFHVHAHPTLSEVLDEAYKRAV

Assays:
[1] = target: B3; test: molecular mass cut-off filtration
[2] = target: B2; test: molecular mass cut-off filtration
[3] = target: the molecule itself; test: native gel or EMSA
[4] = target: the molecule itself; test: SEC
[5] = target: the molecule itself; test: SEC; remark: listed apart in the source
[6] = target: B1; test: SEC
[7] = target: B1; test: SEC; remark: listed apart in the source

Binder	stoichiometry N [1]	binding result [2]	binding result [3]	stoichiometry N [4]	stoichiometry N [5]	stoichiometry N [6]	stoichiometry N [7]
B1	~3 T per L2 dimer	binds	binds				
B2	~0.25 P2 dimer per L2 dimer			2			
B3				2			
Synechocystis sp. PCC 6803 GCS H-protein, recombinant, lipoylated holoprotein (natural protein, lipoyl cofactor on the lipoyl-binding lysine (full lipoylation confirmed by native PAGE); residue number not given) MELEHPDDLYYLDSHEYVRFDGETATIGLSAFAVDELGDIVFVELPEEGDKVEFEQSMGAVESVKAASDLYSPVTGTVIEKNSALEDQPELLNQDPYGEEGWLIKVRLDDVEDAKEGLMAAGDYRATLETGD	~26 H per L2 dimer	binds		~4	2	~2 H per T	~4 H per T

Source: publication doi:10.1101/2020.03.16.993188 (bioRxiv, 2020)
